{
  "source": "patent US20210379147A1",
  "about": "“METHOD AND SYSTEM FOR TREATING CANCER UTILIZING TINAGL1” (The Trustees of Princeton University, priority 2018, published 2021)",
  "key": {"SUM159-M1a": {"system": "SUM159-M1a", "assay": "SUM159-M1a orthotopic tumors, single or combined agent treatment", "assay_type": "in vivo, NSG female mice", "details": "SUM159-M1a model", "protocol": "FIG. 17D is an image of WB analyses where NSG female mice were injected with 10^4 M1a cells by MFP injection, and treated with the indicated reagents twice per week when tumors reached to 2 mm in diameter, then after 5 weeks of the treatments, the primary tumors of each group were collected and activation of EGFR and FAK in primary tumor of each group was tested by WB.\nFIG. 17E is a graph illustrating tumor volumes of each treatment group from FIG. 17D.\n(§1) For xenograft studies, 8-weeks immunocompromised NOD Scid Gamma (NSG) or immunocompetent FVB females were used. Cells were suspended in 10 μl of PBS for mammary gland injection (MFP), or were suspended in 100 μl of PBS for intravenous injection. For human patient-derived xenograft (PDX, HCL001, kindly provided by Dr. Alana Welm) study, we followed the standard protocol for PDX transplantation, maintenance and digestion of the tumors (DeRose et al., 2011). 2×10^4 cells were suspended in 10 μl of PBS and subjected to MFP injection. […] Primary tumors were quantified once per week via caliper measurement. All cell lines used for lung metastasis experiments were stably labeled with a firefly luciferase expressing vector and were monitored by weekly bioluminescent imaging (BLI). At protocol-defined endpoints, lungs were dissected and fixed in bouin's solution and the metastatic lesions were counted."}, "EGFR and FAK pathways": {"system": "EGFR and FAK pathways", "assay": "EGFR and FAK pathway activation in SUM159-M1a cells on FN (WB, FIG. 12)", "assay_type": "cell-based, human", "protocol": "FIG. 12 is an image of WB analyses where a 6-well plate was coated with 10 μg/ml of FN or 10 μg/ml of FN+r-Tinagl1, then SUM159-M1a cells were serum starved for 24 hr, and then seeded on the plate with the media contain 10% FBS and 1 ng/ml of EGF, and then 3 hr after seeding, the cells were treated with […] FAK inhibitor 14 (FAKi) for 2 hr, followed by 1 hr treatment of 100 nM Erlotinib (Erlo), 1 μg/ml r-Tinagl1 alone or combined, and finally the cells were treated with 1 ng/ml of EGF for another 10 min, and then collected for WB analysis.\nFurthermore, p-AKT and p-ERK levels were lowered in r-Tinagl1 treated samples that samples treated with either FAK inhibitor 14 (FAKi) and or EGFR inhibitor Erlotinib (Erlo) alone."}, "LM2 cells": {"system": "LM2 cells", "assay": "Experimental lung metastasis after intravenous injection of LM2 cells, BLI and nodule count", "assay_type": "in vivo, NSG mice", "protocol": "FIG. 6 is a graph of lung metastasis burden measured by BLI every week, for NSG mice under one of three treatment regimens: 1) PBS immediately following injection (510), 2) PBS for the first two weeks followed by r-Tinagl1 treatment (520), and 3) r-Tinagl1 immediately after injection (530).\nReferring to FIG. 6, to further evaluate the therapeutic potential of r-Tinagl1 treatment during metastasis, LM2 cells were injected intravenously to generate lung metastasis, and the mice were separated into three distinct treatment groups: 1) PBS immediately following injection (510), 2) PBS for the first two weeks followed by r-Tinagl1 treatment (520), and 3) r-Tinagl1 immediately after injection (530).\nFor xenograft studies, 8-weeks immunocompromised NOD Scid Gamma (NSG) or immunocompetent FVB females were used. Cells were suspended in 10 μl of PBS for mammary gland injection (MFP), or were suspended in 100 μl of PBS for intravenous injection. For human patient-derived xenograft (PDX, HCL001, kindly provided by Dr. Alana Welm) study, we followed the standard protocol for PDX transplantation, maintenance and digestion of the tumors (DeRose et al., 2011). 2×10^4 cells were suspended in 10 μl of PBS and subjected to MFP injection. For recombinant Tinagl1 (r-Tinagl1), ATN-161, Erlotinib treatments, the mice were injected with 30 μg/mouse, 30 μg/mouse, and 100 mg/kg respectively twice per week via tail-vein. Primary tumors were quantified once per week via caliper measurement. All cell lines used for lung metastasis experiments were stably labeled with a firefly luciferase expressing vector and were monitored by weekly bioluminescent imaging (BLI). At protocol-defined endpoints, lungs were dissected and fixed in bouin's solution and the metastatic lesions were counted."}, "FAK": {"system": "FAK", "assay": "FN- or EGF-dependent FAK phosphorylation (WB)", "assay_type": "cell-based", "details": "tested at 10, 100, 1000 and 10,000 ng/mL", "source_text": "(§2) For WB analysis, cells were collected and lysed with IP lysis buffer described above. After boiled with SDS laemmli buffer, the samples were resolved with SDS-PAGE gel and immunoblotted with standard protocols.\nFN is the major ligand for integrin α5β1 and αvβ1, and triggers integrin/FAK signal pathway after binding. FN was employed to evaluate the effects of Tinagl1 on the integrin/FAK pathway. […] Likewise, the activation of FAK by FN was attenuated in the cells overexpressing Tinagl1."}, "Tinagl1-EGFR interaction": {"biological_target": "T1, Tinagl1-EGFR interaction (Homo sapiens, UniProt P00533)", "T1 construct": "host or cells: HEK293T", "assay": "Competition IP for Tinagl1-HA / GFP-EGFR interaction in HEK293T lysate", "assay_type": "binding", "experimental": "FIG. 13C is an image of IP and WB assays where HEK293T cells co-expressing Tinagl1-HA and GFP-EGFR were lysed and divided into multiple groups, then PBS or indicated amount of proteins was added into each group, then IP followed by WB assays were performed.\nFIG. 13D is a graph quantifying the ability of the indicated protein to compete with Tinagl1-EGFR interaction, by measuring GFP-EGFR level in the groups from FIG. 13C.\nWhether Tinagl1 inhibits EGFR activation in a similar manner was tested. […] Whether Tinagl1 and EGF compete with each other to interact with EGFR was tested."}, "[1]": {"system": "orthotopically implanted mammary tumors", "assay": "r-Tinagl1 treatment of orthotopically implanted mammary tumors", "assay_type": "in vivo, mice", "details": "continuous treatment of r-Tinagl1 for 7 weeks", "source_text": "To test if recombinant Tinagl1 protein (r-Tiangl1) treatment would slow tumor progression, full length recombinant human Tinagl1 with 6×His tag at the C-terminus (r-Tinagl1) was expressed in HEK293T cells and r-Tinagl1 was purified from the culture media using Ni^2+-NTA purification system. r-Tinagl1 was used to treat orthotopically implanted mammary tumors.\nas §1"}, "EGFR": {"biological_target": "EGFR (Homo sapiens, UniProt P00533)", "assay": "EGF-induced EGFR activation in LM2 cells (WB)", "assay_type": "cell-based", "details": "1 hour pre-treatment, then EGF 10 min", "protocol": "FIG. 11A is an image of WB analyses where LM2 cells with or without 1 hour pre-treatment of the indicated amount of r-Tinagl1 were then treated with indicated amount of EGF for another 10 min, then lysed.\nas §2\nCells were treated with r-Tinagl1 and the activity of EGFR and integrin/FAK signaling pathways was evaluated. To test EGFR activation, the LM2 cells were subjected to EGF, r-Tinagl1, or EGF/r-Tinagl1 combined treatment. […] Referring to FIGS. 11B and 11C, EGF-dependent activation of EGFR was similarly attenuated in cells expressing Tinagl1 compared to control cells."}, "[2]": {"system": "primary tumors and lung metastases", "assay": "IHC staining of tumor samples from treatment groups (Ki67, Casp3, CD31, α-SMA)", "assay_type": "in vivo, NSG female mice", "protocol": "FIGS. 17F-17I are graphs quantifying positives cells per field where primary tumors were collected from indicated treatment groups from FIG. 17D and then subjected to IHC staining with indicated antibodies, including % Ki67^+ (17F), % Casp3^+ (17G), % CD31^+ (17H), and % α-SMA^+ (17I).\nTIC staining was performed as previously described (Wan et al., 2014). Briefly, Paraffin-embedded primary tumor or lung samples were sliced into 4 μm thickness. The slides were baked overnight at 60° C. Next, the tissue slides were washed with PBS after deparaffinization and hydration and then boiled in citrate buffer at 100° C. for 40 min. After treated with 3% H2O2 for 30 min to block endogenous peroxidase, slides were incubated at 4° C. overnight with Ki67 (Leica Biosystem, Ki67-MM1-L-CE-S), cleaved caspase-3 (Cell signaling, 9661S), p-EGFR (Cell signaling, 3777), p-FAK (Cell signaling, 8556), CD31 (Cell signaling, 77699), -SMA (Sigma, A5228), or Tinagl1 (Sigma, HPA048695) antibodies. Following washes with PBS, slides were then incubated with HRP-conjugated goat anti-rabbit or mouse secondary antibody (Genetech) for 30 min at room temperature. Sections were stained by DAB and then counterstained with Gill hematoxylin according to manufacturer's instructions."}},
  "data": [
    {"molecule": "r-Tinagl1: full length recombinant human Tinagl1 with 6×His tag at the C-terminus [SEQ ID NO.: 24], expressed in HEK293T cells (protein, listed as Homo sapiens, C-terminal 6xHis tag) MWRCPLGLLLLLPLAGHLALGAQQGRGRRELAPGLHLRGIRDAGGRYCQEQDLCCRGRADDCALPYLGAICYCDLFCNRTVSDCCPDFWDFCLGVPPPFPPIQGCMHGGRIYPVLGTYWDNCNRCTCQENRQWQCDQEPCLVDPDMIKAINQGNYGWQAGNHSAFWGMTLDEGIRYRLGTIRPSSSVMNMHEIYTVLNPGEVLPTAFEASEKWPNLIHEPLDQGNCAGSWAFSTAAVASDRVSIHSLGHMTPVLSPQNLLSCDTHQQQGCRGGRLDGAWWFLRRRGVVSDHCYPFSGRERDEAGPAPPCMMHSRAMGRGKRQATAHCPNSYVNNNDIYQVTPVYRLGSNDKEIMKELMENGPVQALMEVHEDFFLYKGGIYSHTPVSLGRPERYRRHGTHSVKITGWGEETLPDGRTLKYWTAANSWGPAWGERGHFRIVRGVNECDIESFVLGVWGRVGMEDMGHHVDHHHHHH", "values": [
      {"measurement": "lung metastasis", "setting": "SUM159-M1a", "result": "stronger effect than single treatment of Erlotinib"},
      {"measurement": "activation of EGFR and FAK pathways (p-EGFR, p-FAK, p-ERK, p-AKT)", "setting": "EGFR and FAK pathways; 1 μg/ml r-Tinagl1, 1 hr", "result": "inhibited the activation of both EGFR and FAK pathways"},
      {"measurement": "p-AKT and p-ERK levels versus FAKi or Erlo alone", "setting": "EGFR and FAK pathways; FAKi, 100 nM Erlo, 1 μg/ml r-Tinagl1", "result": "lowered"},
      {"measurement": "metastatic growth (BLI)", "setting": "LM2 cells; PBS for the first two weeks followed by r-Tinagl1 treatment", "result": "dramatically decreased metastatic growth"},
      {"measurement": "number of lung metastasis nodules", "setting": "LM2 cells; both r-Tinagl1 treatment groups, end of experiment", "result": "significantly reduced number of lung metastasis nodules"},
      {"measurement": "metastatic growth (BLI)", "setting": "LM2 cells; r-Tinagl1 immediately after injection (continuous)", "result": "significantly reduced metastatic growth"},
      {"measurement": "FN-dependent activation of FAK signaling (FAK phosphorylation at Tyr397)", "setting": "FAK", "result": "significantly reduced FN-dependent activation of FAK signaling"},
      {"measurement": "competition with Tinagl1-HA to interact with EGFR", "setting": "Tinagl1-EGFR interaction", "result": "competed"},
      {"measurement": "primary tumor growth", "setting": "[1]", "result": "significantly inhibited"},
      {"measurement": "spontaneous lung metastasis", "setting": "[1]", "result": "significantly inhibited"},
      {"measurement": "EGF-induced EGFR activation", "setting": "EGFR", "result": "dramatically attenuated"},
      {"measurement": "CD31+ endothelium", "setting": "[2]; primary and lung metastasis", "result": "significantly reduced"},
      {"measurement": "tumor cell proliferation (Ki67 staining)", "setting": "[2]; primary tumor and lung metastatic nodules", "result": "strong anti-proliferative effects on both primary tumors and lung metastases"}
    ]}
  ]
}
